Assay results reported in article PMC10509710, “Development and validation of a purification system for functional full-length human SR-B1 and CD36” (The Journal of Biological Chemistry, 2023).

Molecular target: oxidized low-density lipoprotein (oxLDL) (oxidized with CuSO4 (residues not told))
Test: MST; Cy5-labeled receptor (RED-NHS, lysines) at constant 20 nM, ligand in a 16-point 1:1 dilution series; exchange buffer (50 mM Hepes pH 7.5, 150 mM NaCl, 0.025% LMNG, 0.005% CHS); 25 °C, 40% MST power; apparent Kd, one-site specific binding; molar values from average molecular weights (267.5 kDa HDL, 3500 kDa oxLDL)
Details: both partners purified

B1: human full-length cluster of differentiation 36 (CD36), glycosylated (receptor, UniProt P16671 1-472, looked up)
chain: MGCDRNCGLIAGAVIGAVLAVFGGILMPVGDLLIQKTIKKQVVLEEGTIAFKNWVKTGTEVYRQFWIFDVQNPQEVMMNSSNIQVKQRGPYTYRVRFLAKENVTQDAEDNTVSFLQPNGAIFEPSLSVGTEADNFTVLNLAVAAASHIYQNQFVQMILNSLINKSKSSMFQVRTLRELLWGYRDPFLSLVPYPVTTTVGLFYPYNNTADGVYKVFNGKDNISKVAIIDTYKGKRNLSYWESHCDMINGTDAASFPPFVEKSQVLQFFSSDICRSIYAVFESDVNLKGIPVYRFVLPSKAFASPVENPDNYCFCTEKIISKNCTSYGVLDISKCKEGRPVYISLPHFLYASPDVSEPIDGLNPNEEEHRTYLDIEPITGFTLQFAKRLQVNLLVKPSEKIQVLKNLKRNYIVPILWLNETGTIGDEKANMFRSQVTGKINLLGLIEMILLSVGVVMFVAFMISYCACRSKTIK
modifications: glycosylated (Sf9); labeled with Cy5 via lysine residues in the MST
notes: CD36, human, full length, 472 amino acids as printed; the methods print a C-terminal hemaglutinin A secretion signal and an N-terminal PreScission cut site, His10 and FLAG; In detergent micelles when purified; also called glycosylated CD36; source: Sf9 cells, baculovirus (MOI 5): on cells and in lysate; also purified (LMNG/CHS solubilisation, TALON cobalt resin, desalting)
Q: With B1 as the binder, how does the Kd read?
A: 343 ± 286 nM
